# Assay results reported in paper doi:10.1101/2021.06.09.447781 (bioRxiv, 2021).
# B1: B. subtilis ClpCDWB (E280A/E618A), catalytically inactive mutant (enzyme, UniProt P37571 1-810, looked up)
# chain: MMFGRFTERAQKVLALAQEEALRLGHNNIGTEHILLGLVREGEGIAAKALQALGLGSEKIQKEVESLIGRGQEMSQTIHYTPRAKKVIELSMDEARKLGHSYVGTEHILLGLIREGEGVAARVLNNLGVSLNKARQQVLQLLGSNETGSSAAGTNSNANTPTLDSLARDLTAIAKEDSLDPVIGRSKEIQRVIEVLSRRTKNNPVLIGEPGVGKTAIAEGLAQQIINNEVPEILRDKRVMTLDMGTVVAGTKYRGEFEDRLKKVMDEIRQAGNIILFIDALHTLIGAGGAEGAIDASNILKPSLARGELQCIGATTLDEYRKYIEKDAALERRFQPIQVDQPSVDESIQILQGLRDRYEAHHRVSITDDAIEAAVKLSDRYISDRFLPDKAIDLIDEAGSKVRLRSFTTPPNLKELEQKLDEVRKEKDAAVQSQEFEKAASLRDTEQRLREQVEDTKKSWKEKQGQENSEVTVDDIAMVVSSWTGVPVSKIAQTETDKLLNMENILHSRVIGQDEAVVAVAKAVRRARAGLKDPKRPIGSFIFLGPTGVGKTELARALAESIFGDEESMIRIDMSEYMEKHSTSRLVGSPPGYVGYDEGGQLTEKVRRKPYSVVLLDAIEKAHPDVFNILLQVLEDGRLTDSKGRTVDFRNTILIMTSNVGASELKRNKYVGFNVQDETQNHKDMKDKVMGELKRAFRPEFINRIDEIIVFHSLEKKHLTEIVSLMSDQLTKRLKEQDLSIELTDAAKAKVAEEGVDLEYGARPLRRAIQKHVEDRLSEELLRGNIHKGQHIVLDVEDGEFVVKTTAKTN
# What was measured:
# negative-stain EM = target: the molecule itself; assay: negative-stain EM
# cryo-EM structure [1] = target: the molecule itself; assay: cryo-EM structure
# cryo-EM structure [2] = target: the molecule itself; assay: cryo-EM structure; remark: listed apart in the source
protein,measurement,setting,value
B1,stoichiometry N,negative-stain EM,10
same,stoichiometry N,cryo-EM structure [1],6
same,stoichiometry N,cryo-EM structure [2],24
